Reference: paper PMC7447978, “The ASC-1 Complex Disassembles Collided Ribosomes” (Molecular Cell, 2020)

T1: ASCC1 with a C-terminal 8-histidine tag (human, UniProt Q8N9N2-2 1-357)
T1 construct: ASCC1, human, subunit of the ASC-1 complex (ASCC); Plasmid pFL-ASCC1-8His-ASCC3, fused by Cre with pUCDM-ASCC2-FLAG-TRIP4; The isoform is inferred from the printed reverse primer; also called ASCC1-8His; source: Sf21 insect cells, baculovirus, co-expressed with the other ASCC subunits; purified (NiNTA, anti-FLAG M2, heparin Sepharose); not shown: His8, C-terminal, kept
T1 sequence (looked up): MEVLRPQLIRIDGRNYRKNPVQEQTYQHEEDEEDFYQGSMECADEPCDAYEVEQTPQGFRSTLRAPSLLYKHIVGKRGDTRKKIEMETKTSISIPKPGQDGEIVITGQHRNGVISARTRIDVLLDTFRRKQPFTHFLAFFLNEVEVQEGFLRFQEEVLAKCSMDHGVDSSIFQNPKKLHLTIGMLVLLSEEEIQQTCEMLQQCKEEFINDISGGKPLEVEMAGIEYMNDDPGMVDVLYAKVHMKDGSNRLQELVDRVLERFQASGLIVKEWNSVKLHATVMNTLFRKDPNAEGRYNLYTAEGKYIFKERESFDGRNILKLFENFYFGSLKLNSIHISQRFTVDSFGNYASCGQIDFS

B1: ASCC2 with a C-terminal FLAG tag (natural protein, human, UniProt Q9H1I8 1-757, looked up)
chain: MPALPLDQLQITHKDPKTGKLRTSPALHPEQKADRYFVLYKPPPKDNIPALVEEYLERATFVANDLDWLLALPHDKFWCQVIFDETLQKCLDSYLRYVPRKFDEGVASAPEVVDMQKRLHRSVFLTFLRMSTHKESKDHFISPSAFGEILYNNFLFDIPKILDLCVLFGKGNSPLLQKMIGNIFTQQPSYYSDLDETLPTILQVFSNILQHCGLQGDGANTTPQKLEERGRLTPSDMPLLELKDIVLYLCDTCTTLWAFLDIFPLACQTFQKHDFCYRLASFYEAAIPEMESAIKKRRLEDSKLLGDLWQRLSHSRKKLMEIFHIILNQICLLPILESSCDNIQGFIEEFLQIFSSLLQEKRFLRDYDALFPVAEDISLLQQASSVLDETRTAYILQAVESAWEGVDRRKATDAKDPSVIEEPNGEPNGVTVTAEAVSQASSHPENSEEEECMGAAAAVGPAMCGVELDSLISQVKDLLPDLGEGFILACLEYYHYDPEQVINNILEERLAPTLSQLDRNLDREMKPDPTPLLTSRHNVFQNDEFDVFSRDSVDLSRVHKGKSTRKEENTRSLLNDKRAVAAQRQRYEQYSVVVEEVPLQPGESLPYHSVYYEDEYDDTYDGNQVGANDADSDDELISRRPFTIPQVLRTKVPREGQEEDDDDEEDDADEEAPKPDHFVQDPAVLREKAEARRMAFLAKKGYRHDSSTAVAGSPRGHGQSRETTQERRKKEANKATRANHNRRTMADRKRSKGMIPS
notes: ASCC2, human, subunit of the ASC-1 complex (ASCC); Cloned with primers from the start codon to the last codons before the FLAG tag and stop; Plasmid pUCDM-ASCC2-FLAG-TRIP4; also called ASCC2-FLAG; source: Sf21 insect cells, baculovirus, co-expressed with the other ASCC subunits; purified (NiNTA, anti-FLAG M2, heparin Sepharose); not shown: FLAG, C-terminal, kept
B2: ASC-1 (also known as TRIP4), untagged (natural protein, human, UniProt Q15650 1-581, looked up)
chain: MAVAGAVSGEPLVHWCTQQLRKTFGLDVSEEIIQYVLSIESAEEIREYVTDLLQGNEGKKGQFIEELITKWQKNDQELISDPLQQCFKKDEILDGQKSGDHLKRGRKKGRNRQEVPAFTEPDTTAEVKTPFDLAKAQENSNSVKKKTKFVNLYTREGQDRLAVLLPGRHPCDCLGQKHKLINNCLICGRIVCEQEGSGPCLFCGTLVCTHEEQDILQRDSNKSQKLLKKLMSGVENSGKVDISTKDLLPHQELRIKSGLEKAIKHKDKLLEFDRTSIRRTQVIDDESDYFASDSNQWLSKLERETLQKREEELRELRHASRLSKKVTIDFAGRKILEEENSLAEYHSRLDETIQAIANGTLNQPLTKLDRSSEEPLGVLVNPNMYQSPPQWVDHTGAASQKKAFRSSGFGLEFNSFQHQLRIQDQEFQEGFDGGWCLSVHQPWASLLVRGIKRVEGRSWYTPHRGRLWIAATAKKPSPQEVSELQATYRLLRGKDVEFPNDYPSGCLLGCVDLIDCLSQKQFKEQFPDISQESDSPFVFICKNPQEMVVKFPIKGNPKIWKLDSKIHQGAKKGLMKQNKAV
notes: ASC-1 (TRIP4), human, subunit of the ASC-1 complex (ASCC); Untagged, cloned with primers from the start codon to the stop codon; Plasmid pUCDM-ASCC2-FLAG-TRIP4; source: Sf21 insect cells, baculovirus, co-expressed with the other ASCC subunits; purified (NiNTA, anti-FLAG M2, heparin Sepharose)

Legend:
[1] = biological target: T1, ASCC1 with a C-terminal 8-histidine tag; assay: tandem affinity co-purification (NiNTA, anti-FLAG M2, heparin Sepharose); four subunits co-expressed in Sf21 insect cells; lysate bound to NiNTA through ASCC1-8His (washed at 300 mM NaCl), the eluate bound to anti-FLAG M2 resin through ASCC2-FLAG and eluted with FLAG peptide, then heparin Sepharose; elution fractions shown on a gel; 4°C, 20 mM Tris-HCl 8.0, 10% glycerol; conditions: partners not purified
[2] = biological target: B1; assay: as above; conditions: partners not purified

Binder | stoichiometry N [1] | stoichiometry N [2]
B1 | ~1 | –
B2 | ~1 | ~1
